From ChEMBL document CHEMBL1158843, “Development of a radiochemical cyclooxygenase-1 and -2 in vitro assay for identification of natural products as inhibitors of prostaglandin biosynthesis” (J Nat Prod, 1998)

B1: Prostaglandin G/H synthase 2 (Ovis aries), P79208 (protein)
chain: MLARALLLCAAVVCGAANPCCSHPCQNRGVCMSVGFDQYKCDCTRTGFYGENCTTPEFLTRIKLLLKPTPDTVHYILTHFKGVWNIVNKISFLRNMIMRYVLTSRSHLIESPPTYNVHYSYKSWEAFSNLSYYTRALPPVPDDCPTPMGVKGRKELPDSKEVVKKVLLRRKFIPDPQGTNLMFAFFAQHFTHQFFKTDIERGPAFTKGKNHGVDLSHVYGESLERQHNRRLFKDGKMKYQMINGEMYPPTVKDTQVEMIYPPHIPEHLKFAVGQEVFGLVPGLMMYATIWLREHNRVCDVLKQEHPEWGDEQLFQTSRLILIGETIKIVIEDYVQHLSGYHFKLKFDPELLFNQQFQYQNRIAAEFNTLYHWHPLLPDVFQIDGQEYNYQQFIYNNSVLLEHGVTQFVESFTRQIAGRVAGRRNLPAAVEKVSKASLDQSREMKYQSFNEYRKRFLLKPYESFEELTGEKEMAAELEALYGDIDAMELYPALLVEKPAPDAIFGETMVEAGAPFSLKGLMGNPICSPEYWKPSTFGGEVGFKIINTASIQSLICSNVKGCPFTSFSVQDAHLTKTVTINASSSHSGLDDINPTVLLKERSTEL
B2: Prostaglandin G/H synthase 1 (Bos taurus), O62664 (protein)
chain: MSRQGISLRFPLLLLLLSPSPVLPADPGAPAPVNPCCYYPCQHQGICVRFGLDRYQCDCTRTGYYGPNCTIPEIWTWLRTTLRPSPSFVHFLLTHGRWLWDFVNATFIRDKLMRLVLTVRSNLIPSPPTYNVAHDYISWESFSNVSYYTRILPSVPRDCPTPMGTKGKKQLPDAEFLSRRFLLRRKFIPDPQGTNLMFAFFAQHFTHQFFKTSGKMGPGFTKALGHGVDLGHIYGDNLERQYQLRLFKDGKLKYQMLNGEVYPPSVEEAPVLMHYPRGIPPQSQMAVGQEVFGLLPGLMVYATIWLREHNRVCDLLKAEHPTWGDEQLFQTARLILIGETIKIVIEEYVQQLSGYFLQLKFDPELLFGAQFQYRNRIAMEFNQLYHWHPLMPDSFRVGPQDYSYEQFLFNTSMLVDYGVEALVDAFSRQPAGRIGGGRNIDHHILHVAVDVIKESRELRLQPFNEYRKRFGMKPYTSFQELTGEKEMAAELEELYGDIDALEFYPGLLLEKCHPNSIFGESMIEMGAPFSLKGLLGNPICSPEYWKASTFGGDVGFNLVKTATLKKLVCLNTKTCPYVSFHVPDPHREDRPGVERPPTEL

Legend:
[1] = substrate: CCCCC/C=C\C/C=C\C/C=C\C/C=C\CCCC(=O)O; experiment: Activity of sheep placental cotyledons COX2; settings: Ovis aries
[2] = substrate: CCCCC/C=C\C/C=C\C/C=C\C/C=C\CCCC(=O)O; experiment: Activity of bovine seminal microsomal COX1; settings: Bos taurus

Protein	Km [1]	Km [2]
B1	9.7 µM	–
B2	–	8.8 µM
